The chains are these.
B1: APPY peptide (biotinylated) (peptide)
peptide: SALLQSRLLLSAPRRAAATARYC
modifications: also: biotinylated, position not given here
notes: canonic Hsp70 substrate peptide APPY
B2: Ssb1 (wild type, recombinant) (natural protein)
chain: not shown
notes: Hsp70 Ssb1 of Saccharomyces cerevisiae, wild type, expressed as His6-Smt3-Ssb1 and cleaved with Ulp1; The nucleotide state was set by pre-treatment with ATP (SsbATP) or apyrase (SsbADP) in one experiment; also called wt Ssb1; full length Ssb1; source: E. coli BL21(DE3)*/pRARE, purified (Ni-IDA, Ulp1 cleavage, Resource Q anion exchange); not shown: His6, N-terminal, cleaved; Smt3, N-terminal, …

Conditions in all cases: both partners purified
In assay [1] the target is B2. Kind of assay: SEC; 2 uM biotinylated peptide incubated 30 min at RT with 4 uM purified Ssb1 in Ssb buffer (30 mM HEPES KOH pH 7.4, 50 mM KAc, 5 mM MgCl2, 1 mM beta-mercaptoethanol), then apyrase for 1 h; Superose 12; fractions dot-blotted, peptide detected with StrepTactin-HRP and Ssb with antibody.
In assay [2] the target is T1, Ssb1Δ601–13 (recombinant) (S. cerevisiae, UniProt P11484 1-600).
T1 construct: Purified as the wild type ('His6-Smt3-Ssb1 construct (or mutations thereof)'); also called mutant Ssb1; source: E. coli BL21(DE3)*/pRARE, purified (Ni-IDA, Ulp1 cleavage, Resource Q anion exchange); not shown: His6, N-terminal, cleaved; Smt3, N-terminal, cleaved
T1 sequence (P11484 1-600, stated change not applied): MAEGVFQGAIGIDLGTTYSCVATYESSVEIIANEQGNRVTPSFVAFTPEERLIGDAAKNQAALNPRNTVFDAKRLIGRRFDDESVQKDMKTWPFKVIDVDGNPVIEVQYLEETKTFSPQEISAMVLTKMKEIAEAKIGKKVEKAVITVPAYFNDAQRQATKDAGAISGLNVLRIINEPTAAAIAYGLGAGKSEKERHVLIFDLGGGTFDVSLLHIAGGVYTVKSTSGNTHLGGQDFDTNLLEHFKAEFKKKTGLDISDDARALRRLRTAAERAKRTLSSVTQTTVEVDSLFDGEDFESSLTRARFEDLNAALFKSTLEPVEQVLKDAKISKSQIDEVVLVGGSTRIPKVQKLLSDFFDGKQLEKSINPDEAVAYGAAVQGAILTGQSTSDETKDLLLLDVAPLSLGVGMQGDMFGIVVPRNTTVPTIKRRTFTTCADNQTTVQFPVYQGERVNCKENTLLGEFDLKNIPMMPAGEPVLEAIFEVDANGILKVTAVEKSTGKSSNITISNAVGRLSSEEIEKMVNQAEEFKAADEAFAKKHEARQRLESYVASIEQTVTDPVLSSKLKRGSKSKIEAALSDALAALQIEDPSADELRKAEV
The assay is described as above.

The target in assay [3] is B1. The assay is described as follows: SEC; as a1, but Ssb pre-incubated with apyrase (SsbADP) before the peptide was added, compared with Ssb pre-incubated with ATP (SsbATP) and treated with apyrase after the peptide; shifted APPY signals quantified.
The target in assay [4] is B2. Kind of assay: fluorescence polarisation; fluorescence anisotropy; Ssb1 wt or mutant (10 uM in the methods; titrated up to 100 uM in the text) with 1 uM IAANS-labelled peptide in HKM buffer (25 mM HEPES, 150 mM KCl, 5 mM MgCl2, 1 mM DTT, 10% glycerol), 1.5 h at 30 °C.
The target of assay [5] is T1, Ssb1Δ601–13 (recombinant). The assay is described as above.

Ends that are not written are not given here.

With B1, the binding result in assay [1] and in assay [2] was “binds” each time.
Turning to B2, the “shifted APPY signal of SsbADP relative to SsbATP” value in assay [3] turned out to be 71%.

B3: IAANS-labelled peptide σ32-Q132-Q144-C (peptide)
peptide: QRKLFFNLRKTKQC
modifications: also: IAANS label, position not given here
notes: sigma-32 (heat shock sigma factor RpoH), residues Q132-Q144; The unlabelled peptide was used in 100-fold excess as the chase in the release assay; also called model peptide
As for B3, the binding result in assay [4] and in assay [5] was “binds” in each case.
